# In patent US20260265316A1, “IMMUNOTHERAPEUTIC METHODS, COMPOUNDS, AND COMPOSITIONS FOR TREATING OR PREVENTING CELIAC DISEASE” (DBV Technologies, priority 2023, published 2026):
# Key:
# [1] = test system: 0482 1.2 clone (DQ8-glia-α-specific); test: IFN-γ ELISpot T cell clone assay; type: cell-based, human; settings: 10 μM
# Description: (§1) FIGS. 12A-12E are graphs depicting the evaluation of the ability of gliadin polypeptides (Cv6, Av6, and 4K) to reactivate gluten-specific T cell clones isolated from CeD patients and specific for a selection of key gliadin epitopes (i.e., DQ2.5-glia-α1a (A), DQ2.5-glia-α2 (B), DQ2.5-glia-ω1 […], DQ2.5-glia-ω2 (D), and DQ8-glia-α1 […]), by IFN-γ ELISpot assay. The three gliadin polypeptide constructs Cv6, Av6, and 4K were incubated overnight at three different molarities ([…]) with irradiated PBMCs, and five T-cell clones originally isolated from HLA-DQ2^+ or HLA-DQ8^+ CeD patients. T cells clones were specific for either DQ2.5-glia-α1a (A), DQ2.5-glia-α2 (B), DQ2.5-glia-ω1 (C), DQ2.5-glia-ω2 (D) or DQ8-glia-α1 (E) epitopes. Spots were detected with IFN-γ-biotinylated antibody and streptavidin-ALP complex and counted using an AID ELISpot reader. Data are expressed as mean Spot Forming Units (SFU) per well of 3 replicate wells+SD.
# (§2) For that purpose, five individual CD4^+ T cell clones specific for a selection of key gliadin epitopes have been used. The experimental readout was the enumeration of IFN-γ producing T-cells (Th1 cells) by ELISpot, as previously described: Hardy M Y, et al., J Autoimmun 2015; 56:56-65; Anderson et al., Clinical & Experimental Immunology, 2021, Issue 3, June 2021, Pages 321-334, the entire contents of each of which are incorporated by reference herein.
# (§3) For this in vitro assay, irradiated peripheral blood mononuclear cells (PBMCs) isolated from the blood of healthy donors matching for HLA-DQ2.5 or HLA-DQ8 were used as a source of APCs.
# (§4) As a positive control for antigen-specific T cell stimulation, the cognate gliadin-derived immunogenic peptide known to activate each CD4^+ T cell clone was used, as described in the literature (Sollid et al., Immunogenetics, 2020 February; 72(1-2):85-88; Tye-Din et al., Sci Transl Med, 2010, Vol. 2, Issue 41, 41-51, the entire contents of each of which are incorporated by reference herein). Negative controls consisted of cells treated with a cocktail of four irrelevant peptides of the following sequence: PFPLPQP (SEQ ID NO:87), PQYQPEQ (SEQ ID NO:88), PFEPQPL (SEQ ID NO:89), and PQSYPEQ (SEQ ID NO:90).
# [2] = test system: 3177 2.27 (DQ2.5-glia-ω1 specific) T cell clone; test: IFN-γ ELISpot T cell clone assay; type: cell-based, human; settings: 10 μM, 3177 2.27 clone
# Description: as §1, §2, §3, §4
# [3] = test system: 0177 2.61 (DQ2.5-glia-ω2 specific) T cell clone; test: IFN-γ ELISpot T cell clone assay; type: cell-based, human; settings: 10 μM, 0177 2.61 clone
# [4] = test system: 3007.28 (DQ2.5-glia-α2 specific) T cell clone; test: IFN-γ ELISpot T cell clone assay; type: cell-based, human; settings: 10 μM, 3007.28 clone
# [5] = test system: 3072 1.26 (DQ2.5-glia-α1a specific) T cell clone; test: IFN-γ ELISpot T cell clone assay; type: cell-based, human; settings: 10 μM, 3072 1.26 clone
# [6] = type: physicochemical; settings: for precipitate in solution: pure water, PBS 1×, artificial perspiration, room temperature and 32° C., 24 hours
# Description: Dimerization appeared to be faster in artificial perspiration and at higher concentration.
Molecule,mean spot forming units (IFN-γ ELISpot) [1],mean spot forming units (IFN-γ ELISpot) [2],mean spot forming units (IFN-γ ELISpot) [3],mean spot forming units (IFN-γ ELISpot) [4],mean spot forming units (IFN-γ ELISpot) [5],precipitate in solution [6],dimer formation in solution (HPLC and LC-MS) ([6]; faster in artificial perspiration and at higher concentration)
QLQPFPQPELPYPQPELPYPQPELPYPQPQPGPRRKKPQPEQPEQPFPEQPQGARRKKPQQPFPQPEQPFPWQPQGPKKPSGEGSFQPSQENPQ (peptide) QLQPFPQPELPYPQPELPYPQPELPYPQPQPGPRRKKPQPEQPEQPFPEQPQGARRKKPQQPFPQPEQPFPWQPQGPKKPSGEGSFQPSQENPQ,201,21,12,122,183,no precipitate was observed,–
QLQPFPQPELPYPQPELPYPQPELPYPQPQPGPRRKKPQPEQPEQPFPEQPQGCRRKKPQQPFPQPEQPFPWQPQGPKKPSGEGSFQPSQENPQ (peptide) QLQPFPQPELPYPQPELPYPQPELPYPQPQPGPRRKKPQPEQPEQPFPEQPQGCRRKKPQQPFPQPEQPFPWQPQGPKKPSGEGSFQPSQENPQ,173,15,16,117,159,–,forms some dimers in solution
QLQPFPQPELPYPQPELPYPQPELPYPQPQPKKKKPQPEQPEQPFPEQPQKKKKPQQPFPQPEQPFPWQPQKKKKPSGEGSFQPSQENPQ (peptide) QLQPFPQPELPYPQPELPYPQPELPYPQPQPKKKKPQPEQPEQPFPEQPQKKKKPQQPFPQPEQPFPWQPQKKKKPSGEGSFQPSQENPQ,175,14,11,109,177,no precipitate was observed,–
